Values joined by “and” are separate entries in the source; they are usually repeats but may differ in a detail not shown here. Equal values may be shown once.
Columns and labels:
[1] = biological target: T1, Botulinum neurotoxin serotype A1 (BoNT/A) holotoxin (Clostridium botulinum, UniProt P0DPI1 2-1296); assay: binding competition assay
[2] = biological target: T1, Botulinum neurotoxin serotype A1 …; assay: method not stated
[3] = biological target: purified recombinant BoNT/A light chain (Clostridium botulinum, UniProt P0DPI1 2-448); assay: ELISA on BoNT subunits / Western blot of reduced holotoxin
BoNT/A heavy chain = BoNT/A heavy chain (Clostridium botulinum, UniProt P0DPI1 449-1296); assay: as above
[4] = biological target: Clostridium difficile toxin B (TcdB) holotoxin (Clostridium difficile) (UniProt P18177); assay: cell-based or functional assay
Sequence of Clostridium difficile toxin B (TcdB) holotoxin (Clostridium difficile) (P18177 2-2366): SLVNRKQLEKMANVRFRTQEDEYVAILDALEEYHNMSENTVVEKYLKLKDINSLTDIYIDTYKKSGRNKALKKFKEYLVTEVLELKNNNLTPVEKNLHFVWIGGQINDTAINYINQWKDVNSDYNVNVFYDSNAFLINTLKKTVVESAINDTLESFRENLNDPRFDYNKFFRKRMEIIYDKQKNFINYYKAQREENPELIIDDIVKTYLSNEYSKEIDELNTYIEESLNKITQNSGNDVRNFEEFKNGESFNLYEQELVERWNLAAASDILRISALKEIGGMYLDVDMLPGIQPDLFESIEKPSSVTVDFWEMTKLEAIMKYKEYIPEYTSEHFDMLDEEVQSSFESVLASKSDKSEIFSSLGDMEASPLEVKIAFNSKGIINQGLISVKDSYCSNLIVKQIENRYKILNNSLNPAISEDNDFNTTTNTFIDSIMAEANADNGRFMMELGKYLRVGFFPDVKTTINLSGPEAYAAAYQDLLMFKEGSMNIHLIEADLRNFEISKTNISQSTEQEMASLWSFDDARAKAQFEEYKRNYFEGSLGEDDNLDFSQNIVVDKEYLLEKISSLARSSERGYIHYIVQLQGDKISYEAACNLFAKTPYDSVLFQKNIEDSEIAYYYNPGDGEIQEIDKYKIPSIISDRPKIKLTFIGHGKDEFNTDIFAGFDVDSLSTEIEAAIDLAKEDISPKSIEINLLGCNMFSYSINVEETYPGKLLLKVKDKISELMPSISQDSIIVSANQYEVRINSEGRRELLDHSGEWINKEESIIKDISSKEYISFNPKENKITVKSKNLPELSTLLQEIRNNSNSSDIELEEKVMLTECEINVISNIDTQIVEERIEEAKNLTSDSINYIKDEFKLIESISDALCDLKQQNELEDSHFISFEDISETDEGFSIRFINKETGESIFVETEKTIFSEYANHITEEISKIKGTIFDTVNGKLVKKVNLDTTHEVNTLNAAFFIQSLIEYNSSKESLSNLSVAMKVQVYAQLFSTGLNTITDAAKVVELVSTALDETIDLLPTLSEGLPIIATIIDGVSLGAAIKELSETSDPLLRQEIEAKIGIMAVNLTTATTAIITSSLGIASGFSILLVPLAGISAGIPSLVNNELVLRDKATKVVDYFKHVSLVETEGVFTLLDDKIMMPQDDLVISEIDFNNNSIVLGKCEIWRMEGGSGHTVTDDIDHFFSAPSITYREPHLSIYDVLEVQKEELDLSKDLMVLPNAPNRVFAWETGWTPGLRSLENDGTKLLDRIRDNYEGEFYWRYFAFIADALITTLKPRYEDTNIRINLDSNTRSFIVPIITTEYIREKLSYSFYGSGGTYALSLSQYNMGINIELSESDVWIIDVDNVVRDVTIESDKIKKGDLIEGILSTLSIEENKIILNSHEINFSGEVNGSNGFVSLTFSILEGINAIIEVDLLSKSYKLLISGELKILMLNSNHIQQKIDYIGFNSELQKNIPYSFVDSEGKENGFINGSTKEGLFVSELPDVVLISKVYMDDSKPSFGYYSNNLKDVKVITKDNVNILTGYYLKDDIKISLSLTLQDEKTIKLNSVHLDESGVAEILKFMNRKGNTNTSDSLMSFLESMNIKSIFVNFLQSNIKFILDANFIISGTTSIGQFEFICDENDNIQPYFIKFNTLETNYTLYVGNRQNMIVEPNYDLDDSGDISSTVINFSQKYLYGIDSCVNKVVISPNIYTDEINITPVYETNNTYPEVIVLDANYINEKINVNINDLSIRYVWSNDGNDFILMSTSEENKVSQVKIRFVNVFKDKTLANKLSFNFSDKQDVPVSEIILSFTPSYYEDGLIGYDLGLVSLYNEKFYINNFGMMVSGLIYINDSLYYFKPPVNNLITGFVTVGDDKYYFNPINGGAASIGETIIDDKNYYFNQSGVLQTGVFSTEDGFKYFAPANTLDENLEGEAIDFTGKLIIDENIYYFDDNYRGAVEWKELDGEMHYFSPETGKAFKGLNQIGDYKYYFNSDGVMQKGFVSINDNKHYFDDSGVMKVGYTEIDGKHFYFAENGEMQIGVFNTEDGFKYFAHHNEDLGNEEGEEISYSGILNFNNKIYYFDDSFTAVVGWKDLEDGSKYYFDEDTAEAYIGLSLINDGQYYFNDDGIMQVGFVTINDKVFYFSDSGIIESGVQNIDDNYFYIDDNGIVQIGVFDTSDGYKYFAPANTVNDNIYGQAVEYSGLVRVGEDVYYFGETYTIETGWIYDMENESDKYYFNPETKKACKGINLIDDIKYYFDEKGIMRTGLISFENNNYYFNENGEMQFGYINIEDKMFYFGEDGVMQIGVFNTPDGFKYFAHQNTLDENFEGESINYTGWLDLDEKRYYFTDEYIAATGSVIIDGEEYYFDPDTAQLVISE

[5] = biological target: Clostridium difficile toxin A (TcdA) holotoxin (Clostridium difficile) (UniProt P16154); assay: cell-based or functional assay
Sequence of Clostridium difficile toxin A (TcdA) holotoxin (Clostridium difficile) (P16154 whole entry): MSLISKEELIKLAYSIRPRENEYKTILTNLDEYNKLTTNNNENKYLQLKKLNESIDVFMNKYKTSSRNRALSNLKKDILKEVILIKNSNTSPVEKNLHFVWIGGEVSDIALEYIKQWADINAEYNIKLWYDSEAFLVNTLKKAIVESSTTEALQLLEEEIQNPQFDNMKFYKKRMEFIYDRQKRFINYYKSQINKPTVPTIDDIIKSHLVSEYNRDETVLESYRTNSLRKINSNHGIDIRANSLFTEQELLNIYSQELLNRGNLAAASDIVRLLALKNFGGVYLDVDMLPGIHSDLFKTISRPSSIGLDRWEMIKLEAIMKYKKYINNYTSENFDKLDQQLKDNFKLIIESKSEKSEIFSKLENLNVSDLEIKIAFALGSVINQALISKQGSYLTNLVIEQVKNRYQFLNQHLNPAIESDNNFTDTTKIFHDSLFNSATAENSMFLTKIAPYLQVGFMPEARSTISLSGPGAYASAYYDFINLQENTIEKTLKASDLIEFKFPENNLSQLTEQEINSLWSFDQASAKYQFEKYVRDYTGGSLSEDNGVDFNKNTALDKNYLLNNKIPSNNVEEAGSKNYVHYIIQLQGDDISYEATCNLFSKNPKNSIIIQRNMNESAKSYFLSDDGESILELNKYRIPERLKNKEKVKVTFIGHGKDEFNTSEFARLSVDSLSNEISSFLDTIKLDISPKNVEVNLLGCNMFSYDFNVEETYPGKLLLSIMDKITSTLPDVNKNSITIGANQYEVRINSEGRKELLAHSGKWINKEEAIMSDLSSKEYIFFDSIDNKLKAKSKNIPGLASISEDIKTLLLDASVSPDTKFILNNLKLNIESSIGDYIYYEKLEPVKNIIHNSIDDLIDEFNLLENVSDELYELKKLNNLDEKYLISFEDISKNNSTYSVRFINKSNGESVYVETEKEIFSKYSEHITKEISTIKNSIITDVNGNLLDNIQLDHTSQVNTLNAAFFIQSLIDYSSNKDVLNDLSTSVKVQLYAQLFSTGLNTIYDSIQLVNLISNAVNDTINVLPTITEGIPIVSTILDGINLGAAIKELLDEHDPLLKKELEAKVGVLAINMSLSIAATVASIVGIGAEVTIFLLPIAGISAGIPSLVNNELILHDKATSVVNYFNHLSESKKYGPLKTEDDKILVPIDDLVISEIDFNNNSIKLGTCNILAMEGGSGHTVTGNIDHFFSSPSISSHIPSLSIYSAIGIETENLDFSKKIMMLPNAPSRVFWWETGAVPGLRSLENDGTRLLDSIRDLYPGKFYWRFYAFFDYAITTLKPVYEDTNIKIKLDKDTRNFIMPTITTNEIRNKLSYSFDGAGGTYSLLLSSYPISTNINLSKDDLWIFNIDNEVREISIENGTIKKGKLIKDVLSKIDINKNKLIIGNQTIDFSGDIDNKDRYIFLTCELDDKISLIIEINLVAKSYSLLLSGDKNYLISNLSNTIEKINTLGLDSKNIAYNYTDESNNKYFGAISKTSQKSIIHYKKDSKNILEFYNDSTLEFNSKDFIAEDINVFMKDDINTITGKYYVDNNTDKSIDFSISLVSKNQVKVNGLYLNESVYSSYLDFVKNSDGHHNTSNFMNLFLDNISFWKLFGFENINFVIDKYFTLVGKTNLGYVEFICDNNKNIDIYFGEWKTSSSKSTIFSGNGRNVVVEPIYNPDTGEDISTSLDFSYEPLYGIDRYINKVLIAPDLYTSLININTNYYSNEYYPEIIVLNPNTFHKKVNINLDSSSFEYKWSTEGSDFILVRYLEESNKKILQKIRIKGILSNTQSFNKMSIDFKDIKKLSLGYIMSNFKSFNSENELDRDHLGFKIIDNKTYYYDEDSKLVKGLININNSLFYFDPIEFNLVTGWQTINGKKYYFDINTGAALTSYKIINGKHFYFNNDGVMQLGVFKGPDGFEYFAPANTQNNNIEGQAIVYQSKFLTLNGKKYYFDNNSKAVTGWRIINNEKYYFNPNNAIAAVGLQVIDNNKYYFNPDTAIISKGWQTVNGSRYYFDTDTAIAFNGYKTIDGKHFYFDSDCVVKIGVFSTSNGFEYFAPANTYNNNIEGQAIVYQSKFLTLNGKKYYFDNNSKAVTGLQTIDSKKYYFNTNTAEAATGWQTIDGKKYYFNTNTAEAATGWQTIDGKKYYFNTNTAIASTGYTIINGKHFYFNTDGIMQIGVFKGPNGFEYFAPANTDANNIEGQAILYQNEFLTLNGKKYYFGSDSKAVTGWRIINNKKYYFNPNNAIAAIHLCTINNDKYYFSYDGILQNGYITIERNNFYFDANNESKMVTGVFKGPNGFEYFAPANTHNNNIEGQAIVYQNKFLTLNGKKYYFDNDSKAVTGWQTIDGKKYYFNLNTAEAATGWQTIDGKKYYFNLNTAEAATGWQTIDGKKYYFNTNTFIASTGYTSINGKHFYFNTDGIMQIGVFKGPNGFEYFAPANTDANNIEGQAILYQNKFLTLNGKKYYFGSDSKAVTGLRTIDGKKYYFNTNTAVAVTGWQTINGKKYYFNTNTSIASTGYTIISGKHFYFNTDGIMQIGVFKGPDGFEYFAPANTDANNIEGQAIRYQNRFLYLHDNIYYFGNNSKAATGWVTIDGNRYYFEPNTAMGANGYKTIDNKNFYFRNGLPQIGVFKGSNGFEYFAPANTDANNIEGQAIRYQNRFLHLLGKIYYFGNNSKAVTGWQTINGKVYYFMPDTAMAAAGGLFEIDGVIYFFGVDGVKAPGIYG

B1: JDQ-B2 (VHH)
VHH: QVQLVESGGGLVQPGGSLRLSCTVSGSIFDLPGMNWYRQAPGAQRELVADISSDGRRTNYADSVKGRFTMSRDNAKKTVYLQMDSLKPDDTAVYYCNVKFTHHWGQGIQVTVSS
binding result [1]: binds

B2: JDQ-C5 (VHH)
VHH: QVQLVESGGGLVQPGGSLRLSCTVSGSIFGLPGMSWYRQAPGAQRELVADISSDGGRTHYADSVKGRFTISRDNDKKTVYLQMDSLKPDDTAVYYCNVKFTHHWGQGIQVTVSS
binding result [1]: binds

B3: scFv#7 (scFv)
scFv: SYELTQPPSMSVALGQTAKVTCQGDNLENFYVQWHQQKPGQAPVTVIFQDNKRPSGIPDRFSGSNSGNTATLTISGARTEDEADYYCQSGHSSIGGVFGSGTSLTVLGQPAAAGGGGSGGGGSGGGGSARQVQLQESGPSLVKPSQTLSLTCTVSGFSLTGNSVTWVRQAPGNVPEWLGGISRGGRTYYDTALKSRLSITRDTSKRQVSLSLSSVTTEDTAMYFCARSAYSTLYDYEYAADIYDWGPGLLVTVSSTSGAPVPYPDPLEPRAA
Kd [2]: ~1 nM

B4: JDQ-E9 (VHH)
VHH: QVQLVESGGGLVRPGGSLRLSCVVSGFAYEMPMMGWYRQAPGNQRELVATIGTGGRMNYADSVKGRFTISRDNAKNTVYLQMNSLKPEDTAAYYCKIEFTNYWGQGTQVTVSS
binding result [1]: binds

B5: JDQ-F9 (VHH)
VHH: QVQLVESGGGLVQDGGSLRLSCTTSGSIDSFNAIEWYRQAPGKQRELVASISSDGRRTNYADSVKGRFTISGDNAKNTVYLQMNSLKPEDTAVYYCHRPFTHYWGQGTQVTVSS
binding result [1]: binds

B6: ciA-G5 (VHH)
VHH: QVQLVESGGGLVQPGGSLRLSCQVSGFTFGDWVMSWFRQAPGKEREFVASITATSSLKYYADSVKGRFTISRDNVNNTLFLQMDRLKSEDTAVYYCRSPNYWGQGTQVTVSA
binding result [3]: no binding
binding result (BoNT/A heavy chain): no binding

B7: ciA-A5 (VHH)
VHH: QVQLVESGGGLVQPGGSLRLSCAASAGNLDYYAIGWFRQAPGKEREGVSCISSSDGSTVYTDSVKGRFTISRDNTKNTVDLQMDNLKPEDTAVYYCATVVNYYCTAGGSIHASPYEIWGQGTQVTVSS
binding result [3]: no binding
binding result (BoNT/A heavy chain): no binding

B8: 5D/AA6 VHH heterodimer (bispecific antibody)
chain: QVQLVESGGGLVQPGGSLRLSCEASGFTLDYYGIGWFRQPPGKEREAVSYISASARTILYADSVKGRFTISRDNAKNAVYLQMNSLKREDTAVYYCARRRFSASSVNRWLADDYDVWGRGTQVAVSSEPKTPKPQGGGGSGGGGSGGGGSQLQLVETGGGLVQPGGSLRLSCAASGFTFSDYVMTWVRQAPGKGPEWIATINTDGSTMRDDSTKGRFTISRDNAKNTLYLQMTSLKPEDTALYYCARGRVISASAIRGAVRGPGTQVTVSSEPKTPKPQP
fold neutralization of TcdB against the 5D/AH3 heterodimer [4]: 3 fold and 4 fold
fold neutralization of TcdA against the 5D/AH3 heterodimer (CT26 cell rounding) [5]: 5 fold

Reference: patent US20130058962A1 (published 2013)
